According to paper PMC11630628 (Molecular Plant, 2024):

Experiments:
[1] = system: Arabidopsis WT (Col-0) detached rosette leaves; assay: Detached leaf senescence assay, WT; assay type: in vivo, Arabidopsis thaliana
Description: (§1) A. thaliana ecotype Columbia-0 and mutants used in this study include mik2-1 (SALK_06269), mik2-2 (CS419958), proscoop10-1 (SALK_080439), and proscoop10-2 (SALK_027949), which were obtained from ABRC. The proscoop12 CRISPR-Cas9-generated mutants were kindly provided by Dr. Elia Stahi at the University of Lausanne, Switzerland ([Stahl et al., 2022]). Imbibed seeds were incubated at 4°C in a refrigerator for 2 days before sowing on the soil mix (3 parts commercial soil: 1 parts vermiculite) and grown under the long-day condition (16 h light/8 h dark) in a growth chamber with 150 μmol m^−2 s^−1 light intensity. For the senescence phenotyping of detached leaves, the fifth and sixth rosette leaves of 25-day-old plants were removed and placed in Petri dishes with the adaxial side facing up. The Petri dishes were sealed with parafilm to prevent water loss, and the leaves were incubated with deionized water. The application of exogenous peptides followed the previously established method ([Zhang et al., 2022a], [2022b]). […] All data including plant phenotypes and gene expression presented in this study were analyzed with GraphPad Prism 9, and at least three biological replicates were included in each experiment. Chl content, photochemical efficiency of PSII (Fv/Fm ratio), and ion leakage were determined as previously described ([Zhang et al., 2020], [2022b]; [Guo et al., 2022]).

[2] = system: Arabidopsis mik2 mutant detached rosette leaves; assay: Detached leaf senescence assay, mik2 mutants; assay type: in vivo, Arabidopsis thaliana; settings: SCOOP10 1 μM (Figures 3A–3C)
Description: as §1

[3] = system: Arabidopsis WT intact rosette leaves; assay: Exogenous peptide application on intact rosette leaves; assay type: in vivo, Arabidopsis thaliana; settings: SCOOP10 1 μM sprayed, vs mock
Description: A. thaliana ecotype Columbia-0 and mutants used in this study include mik2-1 (SALK_06269), mik2-2 (CS419958), proscoop10-1 (SALK_080439), and proscoop10-2 (SALK_027949), which were obtained from ABRC. The proscoop12 CRISPR-Cas9-generated mutants were kindly provided by Dr. Elia Stahi at the University of Lausanne, Switzerland ([Stahl et al., 2022]). Imbibed seeds were incubated at 4°C in a refrigerator for 2 days before sowing on the soil mix (3 parts commercial soil: 1 parts vermiculite) and grown under the long-day condition (16 h light/8 h dark) in a growth chamber with 150 μmol m^−2 s^−1 light intensity. For the senescence phenotyping of detached leaves, the fifth and sixth rosette leaves of 25-day-old plants were removed and placed in Petri dishes with the adaxial side facing up. The Petri dishes were sealed with parafilm to prevent water loss, and the leaves were incubated with deionized water. The application of exogenous peptides followed the previously established method ([Zhang et al., 2022a], [2022b]). For dark-induced leaf senescence assays, detached rosette leaves were incubated in deionized water placed in the dark condition for 6 days. At least three biological replicates were included for each assay. For senescence phenotype analysis under normal growth conditions, homozygous plants were grown alongside Col-0. All data including plant phenotypes and gene expression presented in this study were analyzed with GraphPad Prism 9, and at least three biological replicates were included in each experiment. Chl content, photochemical efficiency of PSII (Fv/Fm ratio), and ion leakage were determined as previously described ([Zhang et al., 2020], [2022b]; [Guo et al., 2022]).
Figure S4. […]
after 1 to 10 days of treatments. Three independent experiments were performed with 8 leaves measured for each […]
determined by one-way ANOVA (α = 0.05) followed by Bonferroni post-hoc test for multiple comparisons (*P ≤ 0.05, ***P […]
indicate statistically significant differences compared to WT, as determined by one-way ANOVA analysis (α = 0.05) […]

[4] = system: PROSCOOP10 transcript; assay: qPCR expression of PROSCOOP10 in detached leaves; assay type: cell-based, Arabidopsis thaliana
Description: Total RNA was isolated from Arabidopsis leaves with the RNAiso Plus (TAKARA) and reverse transcribed using the PrimeScript RT reagent Kit (TAKARA). qPCR reactions were implemented in an Applied Biosystems 7500 Real-Time PCR system with the SYBR Premix Ex Taq II (TAKARA). ACTIN was used as the reference gene for qPCR analyses. The primers used for qPCR are listed in Supplemental Table 2.

[5] = system: Arabidopsis root elongation; settings: ref Hou et al., 2021b, Rhodes et al.; cited from earlier work
Description: Senescence, a crucial biological event in plant development, involves the coordinated breakdown of cellular components to recycle nutrients, aiding adaptation to changing environments. It optimizes nutrient storage and reuse, particularly in leaves, the primary photosynthetic organs. Initiation of leaf senescence prompts various physiological changes, including chlorophyll (Chl) reduction and macromolecule degradation, enabling nutrient recycling that supports the growth of seeds and fruits ([Yang et al., 2014]; [Kim et al., 2018]; [Woo et al., 2019]; [Guo et al., 2021]). Efficient senescence ...

[6] = system: bak1-5 serk4 double mutant; parameters: method as in Hou et al., 2021b; settings: ref Hou et al., 2021b; cited from earlier work

B1: SERINE-RICH ENDOGENOUS PEPTIDE 10 (peptide)
peptide: ALPYHHELFLGRKRMNYYKPNSAIGTPSSTSDHAPGSNGRKLMSIYRPNGDIFTGPSGSGHGGGRTPAP
notes: processed from PROSCOOP10; synthesized by GenScript
- senescence phenotype, SCOOP10 alone (sequential assay control) ([1]; SCOOP10 alone, Figures 5D and 5E, n = 8 leaves per replicate): significant senescence phenotypes
- leaf senescence phenotype, detached leaves ([1]; exogenous peptide, SCOOP10 1 μM for 5 days (Figure 2A, 2B; Supplemental Figure 3)): premature senescence phenotype in detached leaves
- senescence induction, WT compared with mik2 mutants [2]: More profound senescence was induced by SCOOP10 treatments in WT than in mik2 mutant plants
- Chl content, intact rosette leaves ([3]; 1 to 10 days, WT, sixth rosette leaves): reduced Chl content
- leaf senescence, intact rosette leaves ([3]; 10 days, 4-week-old WT, three experiments, 8 leaves each): significantly accelerated leaf senescence
- Fv/Fm ratio, intact rosette leaves ([3]; WT): reduced Chl content and Fv/Fm ratio
- PROSCOOP10 expression ([4]; 1 μM peptide, detached leaves, vs mock, qPCR): reduced expression
- PROSCOOP10 expression, SCOOP10/SCOOP10-pretreated leaves ([4]; reduction in SCOOP10/SCOOP10-pretreated leaves vs mock, 1 μM): more pronounced
- root elongation (published) [5]: inhibiting root elongation
- root growth inhibition in bak1-5 serk4 (published) [6]: milder phenotype in response to SCOOP10 treatment
